Measurements reported in patent US20030176678A1.

Target: intact IFNAR1 from human cells (IFNAR1 chain of the type I interferon receptor) (human) (UniProt P17181)
Assay: cell-based or functional assay

Chain of UniProt P17181 (P17181 28-557): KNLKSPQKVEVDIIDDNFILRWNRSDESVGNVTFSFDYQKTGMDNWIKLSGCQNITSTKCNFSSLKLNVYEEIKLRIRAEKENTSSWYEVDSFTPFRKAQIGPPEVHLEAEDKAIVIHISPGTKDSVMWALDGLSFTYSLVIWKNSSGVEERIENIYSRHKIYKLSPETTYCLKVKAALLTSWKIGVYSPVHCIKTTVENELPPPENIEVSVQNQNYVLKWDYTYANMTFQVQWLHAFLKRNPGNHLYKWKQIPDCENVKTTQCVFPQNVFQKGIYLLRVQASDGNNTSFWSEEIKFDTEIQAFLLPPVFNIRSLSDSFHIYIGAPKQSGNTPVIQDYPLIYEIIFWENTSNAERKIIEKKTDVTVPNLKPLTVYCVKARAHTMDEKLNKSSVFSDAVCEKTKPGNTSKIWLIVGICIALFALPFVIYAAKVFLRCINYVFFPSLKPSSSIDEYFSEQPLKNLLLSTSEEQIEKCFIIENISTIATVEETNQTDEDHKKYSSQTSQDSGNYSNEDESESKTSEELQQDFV

reduction in the growth inhibitory effect of IFN-β on myeloma U266S cells by antisense-1 oligonucleotide (Alamar Blue): < 5 fold
Substance: IR1B4/PRMT enzyme (endogenous protein of human myeloma U266S cells) (from UniProt Q99873 11-371)
